The values that follow come from patent WO2024071112A1 (dated 2024).

In the experiment the target is T1, human plasminogen (human, UniProt P00747 20-810, limits assumed).
T1 construct: also called Plg
The experiment can be described thus: ELISA, plate-coated human plasminogen, His-tagged VK and VH peptides bridged and detected by rabbit anti-His tag IgG and HRP anti-rabbit IgG, A450.

T1 sequence (P00747 20-810 limits assumed): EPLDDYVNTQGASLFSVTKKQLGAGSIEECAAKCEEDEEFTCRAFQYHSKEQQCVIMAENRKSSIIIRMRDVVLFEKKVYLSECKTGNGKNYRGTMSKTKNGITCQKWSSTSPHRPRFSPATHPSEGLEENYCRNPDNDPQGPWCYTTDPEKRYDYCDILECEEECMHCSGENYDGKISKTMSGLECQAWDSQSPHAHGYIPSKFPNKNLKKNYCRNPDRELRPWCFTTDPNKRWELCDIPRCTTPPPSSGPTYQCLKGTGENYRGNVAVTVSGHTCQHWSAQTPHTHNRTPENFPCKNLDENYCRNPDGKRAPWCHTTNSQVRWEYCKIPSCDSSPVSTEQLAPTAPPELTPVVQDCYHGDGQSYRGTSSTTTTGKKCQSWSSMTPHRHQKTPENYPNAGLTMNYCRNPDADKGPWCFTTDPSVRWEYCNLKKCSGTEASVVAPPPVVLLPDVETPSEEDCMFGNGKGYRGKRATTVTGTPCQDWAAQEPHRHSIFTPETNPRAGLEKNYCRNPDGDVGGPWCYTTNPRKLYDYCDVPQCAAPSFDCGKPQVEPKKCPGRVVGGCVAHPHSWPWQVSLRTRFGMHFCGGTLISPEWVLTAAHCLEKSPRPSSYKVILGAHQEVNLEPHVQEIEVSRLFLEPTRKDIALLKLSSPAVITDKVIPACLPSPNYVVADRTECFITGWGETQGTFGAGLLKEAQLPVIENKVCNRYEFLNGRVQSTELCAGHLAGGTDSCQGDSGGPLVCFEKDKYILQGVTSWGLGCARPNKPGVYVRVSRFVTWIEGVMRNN

B1: VKc4+VHc1 (His-tagged VKc4 domain peptide combined with His-tagged VHc1 domain peptide) (other)
VL: RSDILMTQSPSSMSVSLGDTVSITCHASQGISSNIGWLQQKPGKSFKGLIYHGTNLEDGVPSRFSGSGSGADYSLTITSLESEDFADYYCVQYAQFPWTFGGGTKLEIKDIPWQGLNDIFEAQKIEWHGSHHHHHH
VH: RSEVQLQQSGAELVKPGASVKLSCTASGFNIKDYYMHWVKQRTEQGLEWIGRIDPEDGETKYAPKFQGKATITADTSSNTAYLQLSSLTSEDTAVYYCAPLLGREDYWGQGTTLTVSSDIPWQGLNDIFEAQKIEWHGSHHHHHH
notes: Two separate His-tagged mouse variable domain peptides made in E. coli (crude lysis supernatant), not covalently linked; in the ELISA they are bridged by polyclonal rabbit anti-His tag IgG; also called Kc4Hc1
Turning to B1, the binding result is reported as “binds”.
